# From the supplement of paper PMC10567573
# B1: BTBD10 (parent)
# chain: DRKLHSRPRKLYKHSSTSSRIAKG
# Variants of: B1
# Assay: protein stability index of a GFP-peptide fusion (GPS, HEK-293T) (PSI 1-6); higher = more stable
# Details: c terminus: a fixed tail appended
# 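Note: lentivirally expressed fusions sorted by FACS into six bins by GFP to DsRed ratio, PSI derived from sequencing read proportions per bin multiplied by bin number.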
row,Variant,protein stability index
1,DRKLHSRPRKLYLHSSTSSRIAKG,2.84
2,DRKLHSRPRKLYMHSSTSSRIAKG,2.84
3,DRKLHSRPRKLYNHSSTSSRIAKG,3.61
4,DRKLHSRPRKLYPHSSTSSRIAKG,3.86
5,DRKLHSRPRKLYQHSSTSSRIAKG,4.12
6,DRKLHSRPRKLYRHSSTSSRIAKG,3.74
7,DRKLHSRPRKLYSHSSTSSRIAKG,3.52
8,DRKLHSRPRKLYTHSSTSSRIAKG,4
9,DRKLHSRPRKLYVHSSTSSRIAKG,3.69
10,DRKLHSRPRKLYWHSSTSSRIAKG,3.55
11,DRKLHSRPRKLYYHSSTSSRIAKG,3.6
12,DRKLHSRPRKLYKASSTSSRIAKG,4.27
13,DRKLHSRPRKLYKCSSTSSRIAKG,4.41
14,DRKLHSRPRKLYKDSSTSSRIAKG,3.58
15,DRKLHSRPRKLYKESSTSSRIAKG,4.13
16,DRKLHSRPRKLYKFSSTSSRIAKG,4.44
17,DRKLHSRPRKLYKISSTSSRIAKG,3.88
18,DRKLHSRPRKLYKKSSTSSRIAKG,3.64
19,DRKLHSRPRKLYKLSSTSSRIAKG,3.4
20,DRKLHSRPRKLYKMSSTSSRIAKG,3.67
21,DRKLHSRPRKLYKNSSTSSRIAKG,4.43
22,DRKLHSRPRKLYKPSSTSSRIAKG,3.54
23,DRKLHSRPRKLYKQSSTSSRIAKG,3.79
24,DRKLHSRPRKLYKRSSTSSRIAKG,4.05

row,Variant,protein stability index
1,DRKLHSRPRKLYKSSSTSSRIAKG,3.66
2,DRKLHSRPRKLYKTSSTSSRIAKG,4.19
3,DRKLHSRPRKLYKWSSTSSRIAKG,3.61
4,DRKLHSRPRKLYKYSSTSSRIAKG,2.79
5,DRKLHSRPRKLYKHASTSSRIAKG,4.23
6,DRKLHSRPRKLYKHCSTSSRIAKG,3.89
7,DRKLHSRPRKLYKHDSTSSRIAKG,4.22
8,DRKLHSRPRKLYKHESTSSRIAKG,4.06
9,DRKLHSRPRKLYKHFSTSSRIAKG,3
10,DRKLHSRPRKLYKHGSTSSRIAKG,4.49
11,DRKLHSRPRKLYKHHSTSSRIAKG,3.25
12,DRKLHSRPRKLYKHISTSSRIAKG,3.43
13,DRKLHSRPRKLYKHKSTSSRIAKG,3.59
14,DRKLHSRPRKLYKHLSTSSRIAKG,3.71
15,DRKLHSRPRKLYKHMSTSSRIAKG,3.1
16,DRKLHSRPRKLYKHNSTSSRIAKG,3.66
17,DRKLHSRPRKLYKHPSTSSRIAKG,4.05
18,DRKLHSRPRKLYKHQSTSSRIAKG,3.85
19,DRKLHSRPRKLYKHRSTSSRIAKG,4.12
20,DRKLHSRPRKLYKHTSTSSRIAKG,4.17
21,DRKLHSRPRKLYKHVSTSSRIAKG,3.88
22,DRKLHSRPRKLYKHWSTSSRIAKG,3.1
23,DRKLHSRPRKLYKHYSTSSRIAKG,3.67
24,DRKLHSRPRKLYKHSATSSRIAKG,4.32

row,Variant,protein stability index
1,DRKLHSRPRKLYKHSCTSSRIAKG,3.43
2,DRKLHSRPRKLYKHSDTSSRIAKG,3.83
3,DRKLHSRPRKLYKHSETSSRIAKG,3.99
4,DRKLHSRPRKLYKHSFTSSRIAKG,2.17
5,DRKLHSRPRKLYKHSGTSSRIAKG,3.52
6,DRKLHSRPRKLYKHSHTSSRIAKG,3.55
7,DRKLHSRPRKLYKHSITSSRIAKG,3.65
8,DRKLHSRPRKLYKHSKTSSRIAKG,2.94
9,DRKLHSRPRKLYKHSLTSSRIAKG,3.92
10,DRKLHSRPRKLYKHSMTSSRIAKG,4
11,DRKLHSRPRKLYKHSNTSSRIAKG,4.28
12,DRKLHSRPRKLYKHSPTSSRIAKG,3.87
13,DRKLHSRPRKLYKHSQTSSRIAKG,4.18
14,DRKLHSRPRKLYKHSRTSSRIAKG,3.78
15,DRKLHSRPRKLYKHSTTSSRIAKG,4.35
16,DRKLHSRPRKLYKHSVTSSRIAKG,4.03
17,DRKLHSRPRKLYKHSWTSSRIAKG,3.25
18,DRKLHSRPRKLYKHSYTSSRIAKG,3.45
19,DRKLHSRPRKLYKHSSASSRIAKG,3.7
20,DRKLHSRPRKLYKHSSCSSRIAKG,3.35
21,DRKLHSRPRKLYKHSSDSSRIAKG,4.54
22,DRKLHSRPRKLYKHSSESSRIAKG,4.41
23,DRKLHSRPRKLYKHSSFSSRIAKG,3.24
24,DRKLHSRPRKLYKHSSGSSRIAKG,2.9

row,Variant,protein stability index
1,DRKLHSRPRKLYKHSSHSSRIAKG,3.63
2,DRKLHSRPRKLYKHSSISSRIAKG,3.56
3,DRKLHSRPRKLYKHSSKSSRIAKG,4.33
4,DRKLHSRPRKLYKHSSLSSRIAKG,4.48
5,DRKLHSRPRKLYKHSSMSSRIAKG,3.28
6,DRKLHSRPRKLYKHSSNSSRIAKG,3.18
7,DRKLHSRPRKLYKHSSPSSRIAKG,3.88
8,DRKLHSRPRKLYKHSSQSSRIAKG,3.98
9,DRKLHSRPRKLYKHSSRSSRIAKG,4.45
10,DRKLHSRPRKLYKHSSSSSRIAKG,3.86
11,DRKLHSRPRKLYKHSSVSSRIAKG,3.81
12,DRKLHSRPRKLYKHSSWSSRIAKG,2.2
13,DRKLHSRPRKLYKHSSYSSRIAKG,3.08
14,DRKLHSRPRKLYKHSSTASRIAKG,4.42
15,DRKLHSRPRKLYKHSSTCSRIAKG,3.27
16,DRKLHSRPRKLYKHSSTDSRIAKG,4.13
17,DRKLHSRPRKLYKHSSTESRIAKG,4.38
18,DRKLHSRPRKLYKHSSTFSRIAKG,3.04
19,DRKLHSRPRKLYKHSSTGSRIAKG,3.99
20,DRKLHSRPRKLYKHSSTHSRIAKG,3.6
21,DRKLHSRPRKLYKHSSTISRIAKG,3.54
22,DRKLHSRPRKLYKHSSTKSRIAKG,3.4
